Assays:
[1] = biological target: HAdV7病毒原液 (human/CHN/GZ6965/2001); test: cell-based or functional assay
合成的口蹄疫病毒多肽抗原 = test: ELISA, antigen coated on plate, anti-human IgG-HRP detection

B1: 10G12抗体 (antibody, V domains shown)
VH: QVQLKQPGAELVRPGASVKLSCKASGYSFTNYWMHWMKQRPGQGLEWIGMIDPSDSETRLNQKFKDKATLTVDKSSSIAYMQLSSPTSEDSAVYYCARDRYDGGAWFDYWSQGTLVT
VL: DIVMTQTPLSLPVSLGDQASISCRSSQSLVHSNGNTYLHWYLQKPGQSPKLLIYKVSNRFSGVPDRFSVSGSGTDFTLKISRVEAEDLGVYFCSQSTHVPPTFGGGTKLEIK
notes: also called 单克隆抗体10G12
B1 was tested, and the “抗体对腺病毒感染的抑制率 (EC50, CPE on A549 cells)” value [1] was 0.2 µg/mL and the binding result (合成的口蹄疫病毒多肽抗原) was “no binding (tested: 300μg/ml)”.
